Test results reported in paper PMC6231325.

Target: GFP_CaV2.2-HA (rabbit) (UniProt Q05152)
Assay: co-IP; competition: tsA-201 cells transfected with GFP_CaV2.2-HA, β1b, α2δ-1 and (TASK3, Cachd1 or a 1:1 mix of both) in a ratio of 2:1:2:1; IP with anti-GFP Ab, 300 mM NaCl, digitonin; α2δ-1 in IP/input normalised to no Cachd1

Chain of UniProt Q05152 (Q05152 whole entry): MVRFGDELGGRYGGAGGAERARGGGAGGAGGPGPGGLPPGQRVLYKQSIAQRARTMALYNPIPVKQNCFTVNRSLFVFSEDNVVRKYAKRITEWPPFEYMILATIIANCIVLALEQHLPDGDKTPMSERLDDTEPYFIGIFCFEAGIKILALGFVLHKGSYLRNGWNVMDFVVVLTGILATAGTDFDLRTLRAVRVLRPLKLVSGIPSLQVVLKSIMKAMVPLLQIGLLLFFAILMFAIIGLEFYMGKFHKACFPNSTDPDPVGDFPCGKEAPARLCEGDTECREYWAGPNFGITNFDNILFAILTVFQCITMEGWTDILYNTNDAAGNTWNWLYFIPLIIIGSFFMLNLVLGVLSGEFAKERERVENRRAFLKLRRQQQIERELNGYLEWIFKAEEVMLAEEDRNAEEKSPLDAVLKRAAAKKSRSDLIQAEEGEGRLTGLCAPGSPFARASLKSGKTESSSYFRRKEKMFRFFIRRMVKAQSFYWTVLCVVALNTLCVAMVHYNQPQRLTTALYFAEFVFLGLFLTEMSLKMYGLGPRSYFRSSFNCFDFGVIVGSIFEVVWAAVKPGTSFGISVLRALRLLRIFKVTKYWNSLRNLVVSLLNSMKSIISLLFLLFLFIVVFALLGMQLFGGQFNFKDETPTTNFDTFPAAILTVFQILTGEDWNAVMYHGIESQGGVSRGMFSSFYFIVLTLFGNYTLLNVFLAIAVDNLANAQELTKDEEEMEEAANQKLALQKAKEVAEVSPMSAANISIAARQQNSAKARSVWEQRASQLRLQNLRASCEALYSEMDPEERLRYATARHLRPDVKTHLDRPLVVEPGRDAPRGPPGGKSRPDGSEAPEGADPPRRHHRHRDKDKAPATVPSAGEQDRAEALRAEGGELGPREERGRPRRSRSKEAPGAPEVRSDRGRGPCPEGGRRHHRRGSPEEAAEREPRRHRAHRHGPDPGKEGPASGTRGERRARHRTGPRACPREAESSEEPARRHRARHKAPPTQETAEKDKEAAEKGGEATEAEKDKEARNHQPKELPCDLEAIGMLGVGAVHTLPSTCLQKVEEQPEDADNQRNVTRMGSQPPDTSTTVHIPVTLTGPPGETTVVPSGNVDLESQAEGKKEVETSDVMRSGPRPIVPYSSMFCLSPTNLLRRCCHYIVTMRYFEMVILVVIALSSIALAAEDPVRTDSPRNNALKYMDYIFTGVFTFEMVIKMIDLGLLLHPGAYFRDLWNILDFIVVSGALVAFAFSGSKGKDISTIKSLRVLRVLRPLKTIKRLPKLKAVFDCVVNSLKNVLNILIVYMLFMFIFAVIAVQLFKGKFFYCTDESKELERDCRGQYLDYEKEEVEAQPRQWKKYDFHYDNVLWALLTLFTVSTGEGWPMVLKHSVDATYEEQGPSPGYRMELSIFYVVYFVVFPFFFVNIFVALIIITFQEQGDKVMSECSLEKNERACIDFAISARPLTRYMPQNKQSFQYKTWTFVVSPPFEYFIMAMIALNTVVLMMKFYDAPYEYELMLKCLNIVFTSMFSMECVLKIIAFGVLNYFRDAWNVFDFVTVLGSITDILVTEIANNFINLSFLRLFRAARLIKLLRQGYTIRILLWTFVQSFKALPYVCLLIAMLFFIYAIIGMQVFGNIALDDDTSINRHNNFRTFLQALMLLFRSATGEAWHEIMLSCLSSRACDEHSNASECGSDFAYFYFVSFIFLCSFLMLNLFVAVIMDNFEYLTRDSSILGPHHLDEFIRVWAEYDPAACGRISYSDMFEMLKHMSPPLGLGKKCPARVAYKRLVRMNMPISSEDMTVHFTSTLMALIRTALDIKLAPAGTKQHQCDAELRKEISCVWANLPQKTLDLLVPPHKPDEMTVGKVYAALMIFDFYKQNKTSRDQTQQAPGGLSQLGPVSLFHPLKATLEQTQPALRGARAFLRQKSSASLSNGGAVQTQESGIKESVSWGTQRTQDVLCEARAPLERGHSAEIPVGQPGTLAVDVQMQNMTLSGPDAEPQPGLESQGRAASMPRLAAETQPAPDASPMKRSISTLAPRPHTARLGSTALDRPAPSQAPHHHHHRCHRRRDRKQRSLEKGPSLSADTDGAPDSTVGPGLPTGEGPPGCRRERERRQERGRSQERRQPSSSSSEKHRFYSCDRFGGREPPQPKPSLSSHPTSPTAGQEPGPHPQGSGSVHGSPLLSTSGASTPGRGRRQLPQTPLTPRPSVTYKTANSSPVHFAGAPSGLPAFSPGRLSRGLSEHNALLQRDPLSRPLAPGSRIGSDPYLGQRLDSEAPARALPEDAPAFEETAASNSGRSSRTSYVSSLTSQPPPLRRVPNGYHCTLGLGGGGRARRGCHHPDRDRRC

In the case of Cachd1 (natural protein), the percent reduction of the coIP of α2δ-1 with GFP CaV2.2 (1× Cachd1) is reported as 71%.
